Test results: publication PMC10343505 (Molecules, 2023)
Where a SMILES comes first, the peptide text is derived from it. The star is where a group is joined. Galloyl = O=C(c1cc(O)c(O)c(O)c1)*

Key:
Vero cells [1] = experiment: Cytotoxicity profile, WST-1 viability assay; format: cell-based, African green monkey; conditions: 72 h; for CC50 (50% cytotoxic concentration in VERO cells): WST-1, non-linear regression of dose-response curve; for maximum non-toxic concentration: arbitrary threshold of 80% cell viability, range 80-0.62 µM
Method: To understand the effect of GA-Hecate and N-terminal-GA-metabolites on host cells, we tested them at a range of concentrations (80–0.62 µM) on Vero cells. Considering the arbitrary threshold of 80% cell viability, GA-Hecate, and GA-metabolite 5 reached their maximum non-toxic concentration at 40 µM (Figure 2).
Figure 2 Compound effects on Vero cells. Vero cells were incubated with different concentrations of GA-peptides. At 72 h post treatment, cell viability was determined by WST viability assay and the values are plotted as those relative to the control. Bars represent triplicate samples of three independent assays. *** p < 0.001. Comparison control vs. concentration. Water, the GA-peptide vehicle, was used as a negative control. Red dotted lines represent the arbitrary threshold of 80% cell viability.
The cytotoxicity profile of GA-Hecate and GA-metabolites. Peptide cytotoxicity profiles were measured using the WST-1 (4-[3-(4-iodophenyl)-2-(4-nitrophenyl)-2H-5-tetrazolio]-3-benzene disulfonate) cell proliferation reagent. A total of 24 h before treatment, 7 × 10^3 Vero cells/well were cultured with supplemented DMEM in a 96-multi-well plate and incubated at 37 °C in a humidified 5% CO2 incubator. The next day, the peptide-containing medium was added at the following final concentrations: 80; 40; 20; 10; 5; 2.5; 1.25, and 0.625 µM. After 72 h of incubation, peptide medium was removed, and WST-1 at a dilution of 1:10 was added to the wells and incubated for 30 min. Absorbance was measured at 450 nm, using a plate reader spectrophotometer.

[2] = Water solubility of synthesized compounds; format: physicochemical; conditions: concentration of 1 mg/mL in pure water
Method: The Hecate N-terminal fragments found in the serum stability experiment were selected to conjugate with gallic acid, like that in the GA-Hecate structure, where GA is coupled at the N-terminal region. Bioconjugates were synthesized using solid-phase methods and, after purification, their purity and identities were determined by high-performance liquid chromatography and mass spectrometry, respectively (see Supplementary Information). GA-metabolite 6 was not water-soluble and therefore was not considered for further biological evaluation.

Vero cells [3] = experiment: Cell toxicity during constant treatment (cell count, WST-1); format: cell-based, African green monkey; conditions: 20 µM for 3 and 7 days
Method: We next assessed the effect, if any, of our peptides on cell growth, which in turn could affect virus replication. Vero cells in culture flasks were propagated in the presence or absence of 20 µM each of GA-peptides for 3 and 7 days. At this time point, viable cells were counted following incubation with trypsin using the automated cell counter Scepter^TM (Millipore), and cell shape was monitored using phase-contrast microscopy. Then, 7 × 10^3 cells were seeded per well of a 96-well plate, incubated for 24 h, and cell viability was measured using the WST-1 viability reagent (Figure 9c,d). […] This was consistent with the lower cell viability found for GA-Hecate-treated cells (65% of the control, Figure 9c).
Figure 9 Effect of peptides on Vero. (a) Cells were treated with 20 µM each of the peptides and cell counts determined at 3 and 7 days (a) during or (b) after treatment, as described in the text. (c,d) depict the cell viability counts from (a,b), respectively, shown as plots. Bars represent triplicate samples of three independent assays. *** p < 0.001. […]
GA-Hecate and GA-metabolite cell toxicity during constant treatment. […] Absorbance was measured at 450 nm, using a plate reader spectrophotometer. […] Cell images were obtained using a confocal microscope and the number of cells/mL was automatically measured using the automated cell counter Scepter^TM (Millipore). […]

ZIKV strain MP1751 = experiment: Virucidal assay, micro-neutralization; format: cell-based, Zika virus; conditions: virus pre-incubated 1 h, 72 hpi, Vero
Method: We next tested the virucidal effect of GA-Hecate and GA-metabolite 5 at concentrations of 20 µM and 40 µM on ZIKV strain MP1751 as described above. Again, we found a modest effect of GA-Hecate at 40 µM on ZIKV strain MP1751 replication. […] Given the latter result, the combination was not tested.
Sandwich ELISA to assess ZIKV infectivity (micro-neutralization). This assay was performed as described previously by Lopez-Chamaco et al., 2018. Briefly, at 72 h post-treatment (h.p.i.) the infected cell medium was removed, and cells were washed with PBS and then lysed with lysis buffer (20 mM Tris-HCl (pH 7.4), 20 mM iodoacetamide, 150 mM NaCl, 1 mM EDTA, and 0.5% Triton X-100) containing protease inhibitors. The lysis solution was transferred to an Immunolon® plate pre-coated with 3 µg/mL of purified pan-flavivirus MAb D1-4G2-4-15 (ATCC® HB112TM, herein referred to as 4G2) in PBS and incubated at room temperature for 1 h. […] After washing with PBST, 100 µL of TMB solution (Life Technologies) was added and the reaction stopped at 30 min with 50 µL of 0.5 M H2SO4 solution added and read at 450 nm using a plate reader spectrophotometer (ELISA).
Entry step assessment of GA-Hecate and GA-metabolites on Zika Virus. […] The levels of virus replication were determined using micro-neutralization as described above. […]

[4] = Serum stability, mass spectrometry; format: in vitro ADME; conditions: 100 µL of 1 mg/mL peptide + 100 µL fresh human serum, 37 °C, 20 min, ethanol precipitation, ESI mass spectrometry
Method: The GA-Hecate peptide has shown promising efficacy in antiviral assays, but its stability and target selectivity are yet to be determined. An understanding of these properties is crucial for the future progression of the peptide for therapeutic end use. To evaluate its stability, the Hecate peptide was incubated in freshly prepared human blood serum at 37 °C for 20 min. Mass spectrometry was then employed to identify breakdown products (metabolites) (Supplementary Figure S1).
Serum stability. A total of 100 µL of a solution containing 1 mg/mL of Hecate peptide was incubated at 37 °C with 100 µL of fresh human serum for 20 min. Then, 200 µL of 96% ethanol solution in water was added to the mixture, which was centrifuged, and the supernatant was analysed by mass spectrometry as described below. Water was used as a negative control for samples without serum (Supplementary Figure S1).
Mass spectrometry. Compound solutions were analysed by mass spectrometry using a Bruker spectrometer in electrospray positive mode with direct injection. Spectra were analysed with the help of Spectra Analysis Software using the relationship between molecular weight (m) and charge (z) (m/z). Fragments of Hecate were identified, and the amino acid sequence was determined by m/z comparison.

fresh human serum = conditions: 37 °C, up to 20 min

Molecule | CC50 (50% cytotoxic concentration in VERO cells) (Vero cells [1]) [µM] | maximum non-toxic concentration (Vero cells [1]; Vero cells, WST) [µM] | Water Solubility [2] | other results
CC(C)C[C@H](NC(=O)[C@H](C)NC(=O)[C@H](CCCCN)NC(=O)[C@H](CCCCN)NC(=O)[C@H](CC(C)C)NC(=O)[C@H](C)NC(=O)[C@H](CCCCN)NC(=O)[C@H](CCCCN)NC(=O)[C@H](CC(C)C)NC(=O)[C@H](CCCCN)NC(=O)[C@H](CCCCN)NC(=O)[C@H](CC(C)C)NC(=O)[C@H](C)NC(=O)[C@H](CCCCN)NC(=O)[C@H](CCCCN)NC(=O)[C@H](CC(C)C)NC(=O)[C@H](C)NC(=O)[C@H](CCCCN)NC(=O)[C@H](CC(C)C)NC(=O)[C@H](C)NC(=O)[C@H](CC(C)C)NC(=O)[C@H](C)NC(=O)[C@H](Cc1ccccc1)NC(=O)c1cc(O)c(O)c(O)c1)C(N)=O [GA-Hecate] (Galloyl-FALALKALKKALKKLKKALKKAL-NH2) | >70.0 | 40 | Soluble | –
CC(C)C[C@H](NC(=O)[C@H](CCCCN)NC(=O)[C@H](CCCCN)NC(=O)[C@H](CC(C)C)NC(=O)[C@H](C)NC(=O)[C@H](CCCCN)NC(=O)[C@H](CCCCN)NC(=O)[C@H](CC(C)C)NC(=O)[C@H](C)NC(=O)[C@H](CCCCN)NC(=O)[C@H](CC(C)C)NC(=O)[C@H](C)NC(=O)[C@H](CC(C)C)NC(=O)[C@H](C)NC(=O)[C@H](Cc1ccccc1)NC(=O)c1cc(O)c(O)c(O)c1)C(=O)O [GA-Metabolite 5] (Galloyl-FALALKALKKALKKL-OH) | >70.0 | 40 | Soluble | cell viability (Vero cells [3]): did not have any effect on cell viability or cell shape; virucidal inhibition (ZIKV strain MP1751; 20 µM): 98.5%; virucidal inhibition (ZIKV strain MP1751; 40 µM): 98.5%
CC(C)C[C@H](NC(=O)[C@H](C)NC(=O)[C@H](CCCCN)NC(=O)[C@H](CC(C)C)NC(=O)[C@H](C)NC(=O)[C@H](CC(C)C)NC(=O)[C@H](C)NC(=O)[C@H](Cc1ccccc1)NC(=O)c1cc(O)c(O)c(O)c1)C(=O)O [GA-Metabolite 6] (Galloyl-FALALKAL-OH) | – | – | Not soluble | –
CC(C)C[C@H](NC(=O)[C@H](C)NC(=O)[C@H](CCCCN)NC(=O)[C@H](CCCCN)NC(=O)[C@H](CC(C)C)NC(=O)[C@H](C)NC(=O)[C@H](CCCCN)NC(=O)[C@H](CC(C)C)NC(=O)[C@H](C)NC(=O)[C@H](CC(C)C)NC(=O)[C@H](C)NC(=O)[C@H](Cc1ccccc1)NC(=O)c1cc(O)c(O)c(O)c1)C(=O)O [GA-Metabolite 7] (Galloyl-FALALKALKKAL-OH) | >80.0 | – | Soluble | cytotoxic effect (Vero cells [1]; Vero cells, WST, all tested concentrations 80-0.62 µM): did not show any cytotoxic effect
CC(C)C[C@H](NC(=O)[C@H](C)NC(=O)[C@H](CCCCN)NC(=O)[C@H](CCCCN)NC(=O)[C@H](CC(C)C)NC(=O)[C@H](C)NC(=O)[C@H](CCCCN)NC(=O)[C@H](CCCCN)NC(=O)[C@H](CC(C)C)NC(=O)[C@H](CCCCN)NC(=O)[C@H](CCCCN)NC(=O)[C@H](CC(C)C)NC(=O)[C@H](C)NC(=O)[C@H](CCCCN)NC(=O)[C@H](CCCCN)NC(=O)[C@H](CC(C)C)NC(=O)[C@H](C)NC(=O)[C@H](CCCCN)NC(=O)[C@H](CC(C)C)NC(=O)[C@H](C)NC(=O)[C@H](CC(C)C)NC(=O)[C@H](C)NC(=O)[C@@H](N)Cc1ccccc1)C(N)=O [Hecate] (H-FALALKALKKALKKLKKALKKAL-NH2) | – | – | – | stability in human blood serum [4]: degraded in human blood serum into three major metabolites
H3^+N-FALALKALKKALKKLKKALKKAL-CONH2 | – | – | – | cleaved bond (fresh human serum): L-K, major, 20 min
